Data as given in patent US20090311686A1 (GIVAUDAN, published 2009).
No end group written: not given here.

Legend:
Assay in all cases: cell-based or functional assay
[1] = target: human T1R2/T1R3 sweet receptor heterodimer (wildtype) (human, UniProt Q8TE23 20-839; Q7RTX0 21-852)
[2] = target: T1, human calcium-sensing receptor (hCaSR), full length (human, UniProt Q8TE23 20-839)
T1 sequence: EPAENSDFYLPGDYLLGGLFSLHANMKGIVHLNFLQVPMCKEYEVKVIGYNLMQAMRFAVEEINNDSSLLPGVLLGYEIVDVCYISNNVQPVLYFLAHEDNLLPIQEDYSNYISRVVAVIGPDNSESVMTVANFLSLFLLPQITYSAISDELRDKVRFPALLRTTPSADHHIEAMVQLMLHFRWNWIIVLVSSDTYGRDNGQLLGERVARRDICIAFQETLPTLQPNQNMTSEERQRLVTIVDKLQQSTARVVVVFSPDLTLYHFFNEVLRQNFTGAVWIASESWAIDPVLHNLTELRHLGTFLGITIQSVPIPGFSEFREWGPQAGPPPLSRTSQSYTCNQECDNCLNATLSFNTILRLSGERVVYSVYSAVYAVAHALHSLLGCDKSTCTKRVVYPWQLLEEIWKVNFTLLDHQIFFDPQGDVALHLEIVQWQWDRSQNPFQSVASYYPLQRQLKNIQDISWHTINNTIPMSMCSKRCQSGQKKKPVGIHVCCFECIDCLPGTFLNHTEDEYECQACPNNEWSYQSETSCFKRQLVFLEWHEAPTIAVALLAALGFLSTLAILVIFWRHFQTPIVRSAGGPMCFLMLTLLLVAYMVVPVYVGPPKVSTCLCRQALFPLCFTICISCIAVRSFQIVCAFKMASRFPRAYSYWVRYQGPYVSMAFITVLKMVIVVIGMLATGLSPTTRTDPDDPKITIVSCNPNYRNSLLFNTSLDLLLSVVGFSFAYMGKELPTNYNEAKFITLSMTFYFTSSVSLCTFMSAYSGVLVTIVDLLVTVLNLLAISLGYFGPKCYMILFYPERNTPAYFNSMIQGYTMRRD

[3] = target: T2, CSR:T1R2/CSR:T1R3 chimeric heterodimer (human)
T2 chain 1: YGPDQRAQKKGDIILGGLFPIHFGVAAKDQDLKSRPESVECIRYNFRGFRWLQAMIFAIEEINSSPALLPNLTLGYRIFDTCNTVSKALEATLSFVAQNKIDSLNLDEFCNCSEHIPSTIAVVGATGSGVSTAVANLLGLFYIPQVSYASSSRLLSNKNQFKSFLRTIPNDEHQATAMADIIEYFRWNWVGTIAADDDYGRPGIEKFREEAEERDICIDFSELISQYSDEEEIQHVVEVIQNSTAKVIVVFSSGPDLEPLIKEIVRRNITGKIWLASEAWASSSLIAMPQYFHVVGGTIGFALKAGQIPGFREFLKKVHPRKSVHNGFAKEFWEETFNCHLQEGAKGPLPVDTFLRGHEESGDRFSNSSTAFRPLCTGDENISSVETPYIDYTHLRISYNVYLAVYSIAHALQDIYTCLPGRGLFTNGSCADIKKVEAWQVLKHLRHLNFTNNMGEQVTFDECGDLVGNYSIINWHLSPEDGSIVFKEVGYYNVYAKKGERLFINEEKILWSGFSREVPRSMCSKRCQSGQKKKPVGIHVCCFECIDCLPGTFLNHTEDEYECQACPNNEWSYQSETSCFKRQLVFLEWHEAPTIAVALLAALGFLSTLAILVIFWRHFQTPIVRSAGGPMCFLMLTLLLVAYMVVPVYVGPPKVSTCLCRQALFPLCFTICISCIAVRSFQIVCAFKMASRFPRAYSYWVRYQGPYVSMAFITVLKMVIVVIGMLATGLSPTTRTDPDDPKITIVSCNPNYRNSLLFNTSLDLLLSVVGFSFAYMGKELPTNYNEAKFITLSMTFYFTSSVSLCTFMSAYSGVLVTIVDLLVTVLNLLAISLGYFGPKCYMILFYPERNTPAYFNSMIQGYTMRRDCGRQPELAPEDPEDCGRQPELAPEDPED
T2 chain 2: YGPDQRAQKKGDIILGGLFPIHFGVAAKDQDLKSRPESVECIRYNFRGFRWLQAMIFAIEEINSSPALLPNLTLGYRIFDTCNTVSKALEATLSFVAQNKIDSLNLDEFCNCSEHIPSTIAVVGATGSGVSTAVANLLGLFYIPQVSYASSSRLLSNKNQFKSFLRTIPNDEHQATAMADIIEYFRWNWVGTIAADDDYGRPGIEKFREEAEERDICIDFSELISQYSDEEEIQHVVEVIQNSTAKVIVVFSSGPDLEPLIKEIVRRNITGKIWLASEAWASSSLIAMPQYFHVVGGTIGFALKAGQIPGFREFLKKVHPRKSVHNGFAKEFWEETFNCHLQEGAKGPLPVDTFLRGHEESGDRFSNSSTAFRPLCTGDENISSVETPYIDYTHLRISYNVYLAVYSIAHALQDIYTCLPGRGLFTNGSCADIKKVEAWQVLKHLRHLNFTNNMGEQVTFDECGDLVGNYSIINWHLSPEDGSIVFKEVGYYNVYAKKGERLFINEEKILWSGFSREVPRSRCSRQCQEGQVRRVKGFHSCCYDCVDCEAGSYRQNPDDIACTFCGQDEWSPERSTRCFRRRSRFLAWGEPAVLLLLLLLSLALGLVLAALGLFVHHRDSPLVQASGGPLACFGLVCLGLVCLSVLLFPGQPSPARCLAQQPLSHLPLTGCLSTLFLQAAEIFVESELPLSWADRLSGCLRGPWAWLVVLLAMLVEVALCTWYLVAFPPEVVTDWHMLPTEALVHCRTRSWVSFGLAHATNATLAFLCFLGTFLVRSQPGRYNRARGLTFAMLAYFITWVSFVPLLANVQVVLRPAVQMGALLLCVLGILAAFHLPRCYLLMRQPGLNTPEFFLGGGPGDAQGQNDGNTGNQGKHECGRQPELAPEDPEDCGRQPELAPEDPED

human T1R2/T1R3 sweet receptor heterodimer (wildtype), sequence (Q7RTX0 21-852 C757R limits assumed, one chain of several): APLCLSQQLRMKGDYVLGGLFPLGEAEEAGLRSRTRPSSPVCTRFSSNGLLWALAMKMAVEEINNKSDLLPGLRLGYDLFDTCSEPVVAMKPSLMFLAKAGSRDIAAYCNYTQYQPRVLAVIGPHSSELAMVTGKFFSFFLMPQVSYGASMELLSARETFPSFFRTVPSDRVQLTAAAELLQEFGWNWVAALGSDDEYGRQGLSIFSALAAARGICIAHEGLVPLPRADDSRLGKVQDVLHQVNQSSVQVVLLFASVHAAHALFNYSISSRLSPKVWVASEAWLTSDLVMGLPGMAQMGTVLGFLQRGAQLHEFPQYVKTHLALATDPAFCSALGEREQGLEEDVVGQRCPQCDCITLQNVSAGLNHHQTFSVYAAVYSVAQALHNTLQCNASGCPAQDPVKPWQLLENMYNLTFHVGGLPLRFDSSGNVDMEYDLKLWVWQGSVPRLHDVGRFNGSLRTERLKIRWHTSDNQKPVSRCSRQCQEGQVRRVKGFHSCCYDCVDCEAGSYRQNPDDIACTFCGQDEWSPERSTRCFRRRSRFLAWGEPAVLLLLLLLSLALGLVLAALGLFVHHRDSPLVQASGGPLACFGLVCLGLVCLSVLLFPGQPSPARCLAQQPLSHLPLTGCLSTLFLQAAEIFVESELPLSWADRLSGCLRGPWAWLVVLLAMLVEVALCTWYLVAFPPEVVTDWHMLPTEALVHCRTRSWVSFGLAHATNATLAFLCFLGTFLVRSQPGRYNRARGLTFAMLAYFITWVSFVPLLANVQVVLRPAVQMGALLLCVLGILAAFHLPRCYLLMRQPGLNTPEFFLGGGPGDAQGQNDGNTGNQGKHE

B1: Aspartame (aspartyl-phenylalanine-1-methyl ester, a dipeptide) (peptide)
peptide: Asp-Phe-OMe
- net increase in fluorescence over baseline (Fluo-4 calcium assay, AVG of six replicates), aspartame 0.85 mM [1]: 531 RFU
- net increase in fluorescence over baseline (Fluo-4 calcium assay, AVG of six replicates), aspartame 0.85 mM [2]: 41 RFU
- net increase in fluorescence over baseline (Fluo-4 calcium assay, AVG of six replicates), aspartame 0.85 mM [3]: 72 RFU
